Reference: the NTF2 design screens of Basanta et al. (2020)

Experiment: protease stability score; higher = more stable; yeast display proteolysis, trypsin and chymotrypsin;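 note: log10 excess protease needed over predicted unfolded state with 0 meaning unfolded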

Work on “DEDNVKRAEHFAEALITGNPEEIQKQVDPNAKIKVGEQEVHGMESYAKEVHEENKEMHIEIRHISATAQGDRARLEMRYVINSNGRPQHVVQEYTIKLHNGRAQEIEVKDDG” yielded a protease stability score of 0.282.
Work on “DQDAQRQLREAMKDEESGDHRSIRENIDPNAKLDVGDKDVTGRENVAKEIKHQVDESRVKIDHYRMEVHGDRVTVTFNAVETHNGQPRRKTYQVIFKIHNGQFKKIMMRTSQ” yielded a protease stability score of 0.546.
Sequence “DEDKHVHRAFEEMLTVMEKGNEDEVKRLVDKDVRVHIGDKSYRGRTNVAKQIVDWARRADHIEIEVTEIDIQGDQVTMRATAHATHNGKTQSYDFTIILRIENGRAVIHSWHVS” has a protease stability score of 0.923.
Work on “DDDVLRKVERLIEVENEGNEDEARELMDPNAEFQVGDKSVHGREEYASNMKKEQKELKIEIHHVTQSVHNGEADVHLTMRVNDNGRPKEQHYHATFEAHNGRIVYVKKQMRG” yielded a protease stability score of -0.099.
For “DDDQSRKLKKLFDNNNWDTLQDNADKNANIEVGNKELHGREDAEQLSEKFRDQVDHLTIESIDISGDRVIVTFVVNVNGQRVKYRVVVEAHNGRVKRMRFEFTNPEERKQYDEQLG”, the protease stability score was 0.899.
With “DEEALKVLKEWIKAVETGDEERIKELVDKDVTVQVGDKVIRGREQVAKTVRKEREEMRVEINFDRLHADGDRVSAEFKVVEETNGRPNTKKQRMSARVHNGKFKSMEIQDDG” the protease stability score was 0.205.
Sequence “DEHAVEVAKKIVEAWKDGDPKRFNELFDPNAQLRVGDHHFHGSHEADRHMQTINKEQRVRYKNVRVESRPGRVEVRVDMEKTHDGRPRRSEFTVQINVHDGQVKKLTVQEDG” has a protease stability score of 0.239.
“DERKKDRMRELFEAWKTGDEHTAEKMLDKDAKIDVGDHRVQGREQHSTDVRRRKEEIRLRVDIDSIHIHNGRVSVEYKEENNHNGKPDTKNARVDFNMHNGRVQEQKQSNES” gave a protease stability score of -0.35.
With “DDRDIERMAKDYVRAIRTGDEEQIRRLMDKDVKYEIGDKTIHGRENWAKWVKNFRRHADHVRLKDMRVHGNKIDLNMEFQVNGEKKRQKYDIQVHNGRIKTVRIEDS” the protease stability score was 1.47.
Sequence “DEEQDARRIAELLDKVFRNNDEDQFMRLMDPNAEVVVGDKTYRGREQARSAMSEIVKHFDHVHLKLDSFSNHNGRVTASNTLHADSNGKKRKVKVTIHFDVKGDKAVIKHLTIE” has a protease stability score of 0.866.
In the case of “DDEHIKEFLQVVRRGDPDKILKMIDPNAHLQVGDKDLHGRDAVKKAQDKLETTVDHFEVEEVHFQGDNVVVTYLLNVNGKSITVQLVANIEDGRIKSMRIEARSEEDHKILNEQQG”, the protease stability score is reported as 0.693.
For “DSEVLDVLTSIVKNIHNGNPDEVMKQMDPNARVQVGDDRFHGDRKQQEDVQTLLDTMEVNIHITSVDFDGDKVTVRFKVEYNVNGRPFRIEAEMQAVAKNGRIQDLKVRIDKQFLSELKS”, the protease stability score was 0.858.
With “DKEMASVVERWLDALQRNDPDQANNNADKDATFDVGDKKVKGRDTLKKLVEDLRREMRFNITSMSITVHGDKVVVTYRVSMQHDGQPMQHRYFLHAQDKNGHIHNLHVQKSD” the protease stability score was 0.44.
“DERQLKILVRILNAIHEGDPDTVKQLVDPNARVVIGDKVLHGMDEVRDTLHKWQEEQEVDLKDYRDNVHNGKADITAKAKVNQDGTPDHIRFKATAEFRNGRAKEVRINHDK” gave a protease stability score of 1.09.
In the case of “DETQDKKAERLVKKNNWDEMVRNADKDVRVQVGDYEVHGREDMKRLAKKFKDRYDHVKVDDVQVHNGRVNADMKATVDGHTIRFILQADIHNGRFKYMTLQARSSEQEKHLKRLFQ”, the protease stability score is reported as 0.475.
“DDEEADKIVEELVKAMEHNDEKHFMELVDPNAKVRYGDTEYHGEDQIQTMFREIVEQADTVQVRSYRVENGEARVEANFRVNGRNAIVTMSATFHNGRVQSLRLHARDEEDRNKLDN” showed a protease stability score of 0.999.
Sequence “DEDAQKQVEKMLQAVREGDDRQIKRLFDPNAEINVGDKHVTGREQATKEMSKRKKEMDIDIKIEEVQVKGDRVELKAVVLENKNGDPQTFHVRAVYHAHNGKIRTNNVEKDG” has a protease stability score of -0.074.
For “EEENVKLVERFLKAVLEGDEDQLRRLMDPNARVRVGDKVLTGRDRVAEHFKERSQQWQFHIDVKHVSVNGDHIIMHFQFSMTVNGQPRSATMTAVFRVHNGRIQQVEFRLPEEDQKTIRG”, the protease stability score was 0.811.
For “DQRDVKKAEHLLRILETGNESELKKMMDPNARARVGDTTYHGMDDFVRKLTHMRDRAKFEIKEYSATDHNGHIRVHVRREVNFNGRPDRVSFIVRFDIENGKVRSVIFNLPRELLEREKK”, the protease stability score was 0.429.
Sequence “DDKRKADEFAKELVKAVQTGDSDNIRKLLDPNARINVGEKHYQGKDSMAKIMVRIAEDVDHISARVISVRDHNGSAVIHIEVQNNHNGRNSRTRVILHLTDHNGRIKLRERREG” has a protease stability score of 0.749.
With “DDENVEIAEKIVKAEQSGDEDHLRELADPNARFHVGDKHVSGMEKFLKDFQHEFEELRFSIKVTSVTQSNGKVHMTATATRHRNGRPDSFTANRRFLFHNGKAKEVSQDNRK” the protease stability score was -0.352.
“DDDEMRKLLTRLADNYKHNDPNKLAEQMDPDVEIEIGDKTYHGRENVMKHWKEQHERVDHVNIQHLDAQGENLVMTFNVTVNGKHVTVRIIFNVKNGRIKSVIVDPDDIKKLEG” showed a protease stability score of 1.48.
Sequence “DEHARRLVKKFIEAMKHGDPDKLMKLADPNVKFDIGDHQFKGSHEANKWLERMVRHMRFSLKVDSVKAHNGRVEVDAVFTFEVNGKPDQQRFTLDFHFNNGRVQNLTWDVDPRDWRKQLK” has a protease stability score of 0.73.
“EEEVAKHALEIMITGDPKQIKEMVDENAHVKVGNKEWHGREHMVHWAEQLHTQVDHREVRSMEVNGNTARVDLVVTINGHHIRFILRATIHNGRVQHLSLEVTNEEQQTQWERNLS” showed a protease stability score of 0.075.
“DETEKADQMVHDLEEAIKTGDPDEISNQADPNVSFHYGDKTFHGREKLAEWFLELQKRVDHMHLDIKDIEVQGDKATITMQMVLDKNGDDERKDIRVEAQYHNGRLTISFAEAR” gave a protease stability score of 2.15.
With “DDDNARELVKRIMKAWQTGDEKELNKNMDPNVRIEVGDKTWHGREDVSKMARELRKQVDSIEVKDVEVQGNHANADVVQVVNGEQKHYLVIIDFHNGKARRLKIEER” the protease stability score was 2.11.
Sequence “DEHLQTLVTDLIRAEQNNDEERLKRLMDPNVRAQYGDQTVSGREEIVQKIIHKNREIHFSQEIKSISAHNGRIHVTVEFTEEHNGEPRRDKMHQTIIAHGDQIKEVRVKSDG” has a protease stability score of -0.28.
“DDEDKAREFQRHLLRLVRTNNEKDLHNMADPNVKVVIGDKVYSGRDDVAKAHAELRRNVDHINLEIKSVSHKNGRMKVEAEVIYDHNGKKDKRTMTAVIDRHNGKNVLVHMNIQ” gave a protease stability score of 1.65.
Sequence “DKEENHMFQQAFTVEWTGDPEKVNRLMDPNAKIEVGEKRVHGMDKYAREVKREHDDMRVDVRTYSNDVHNGEVDVKVNYVKNNNGRPRHVSQSIRAHASNGKVKSVQVTERG” has a protease stability score of -0.299.
“KEETVKTLWERMVEAVQKGDKEKVKKLGKDNVNARYNGKEYQGREELAKMLDKFKRKGAEFELKQVHVEGNTVKAEIEVHAAGTTQHVEVEAKYDGGQVEEVVVKISEEVQEMYKKG” showed a protease stability score of 0.551.
For “DEDQLKVALKAIRAQNNNNPDELLKLLDENVRLQYGDKTVHGREEVKEMIKHWLSHWRWKIDVRRYSVHNGVARIEALVTINVNGKPQTFTVVIHVRAENGRIKEMHYHFDEEDQEKIRS”, the protease stability score was 1.37.
Work on “EKEVVELAERFIDALQTNNPDQAEENVDENVKFQYGDKSIKGRDTWNRELKKTLRDQRIQFRHVEIRSDGDKAHITAEFQVTHNGQPDKRRYKMTVEVRNGTIQRVTVQQHR” yielded a protease stability score of 0.17.
Sequence “DEEDLQRVAEEVARALDTGNPDKFNSLLDKDAKVNYGDKEYTGREELKKLQERIKEHVDHVHVKRVKVEGEKIHLDIEFEVNGRRFRDTIEARVHNGELQKVHVDPNFVRELKQ” has a protease stability score of 0.842.
With “DERQNSQLHRQIEQAKQGDEEKVRQQMDENARARYGDKEVHGRTELARQQVRQWNEAKIDIEFKRVSAHENEIRVNVVMQFDVDGRPNRSTWTFKVRFHNGTIKQINAEIDPDEWDTLLK” the protease stability score was 0.506.
“DEEKHKQKLRKFAKDFVEGDPEEISKNVDEDVKVHIGDQDVSGREEAMKVIEEIKKRADHIQITSVEASNGRLRINVVIQVNGRNVTAHVTVDADNGRVKKVTMDPDQVRKLKS” gave a protease stability score of 0.827.
In the case of “EEDLHEAFERIKHALEHGDPKQVQNQFDPNVEVIIGNKTLHGRETLKDEVKKLQDEMQITWRSITINVDGDRVVVHYHIEFRINGQPQSMSYNVDARASNGKIEEMDLRISEDQQKRLNS”, the protease stability score is reported as 0.06.
“EEHLKHVVEELWKAMQTGDEDKIRRNADPNAHFSIGDKVIQGRERFAQDVRQTYDEIRVDIKIHRMNIQGEKVKVRFTFEQKVNGKPRSDENSAENTLHNGKVEEMNITIDPDKQRKFES” showed a protease stability score of -0.43.
In the case of “DEKHLERQVDHFLDALHRGDEDEAVNLADPDVEFQVGDRTYHGKEQLKEWLKRLVDRVDHVDIKNITVSGDKVEVHADFSVDGRKETMTFTVRAHNGRIKHMTIDKG”, the protease stability score is reported as 1.27.
“DEDDVNKAHNILKHGDWEKFASQADENVRIHIGNKEVNGRERASEVLKLIRDRVDSEEIKRMSFHGDKVVVDAEQVVNGKKVRFVIRVKAHNGRIKQMDFQFRNEEDKKKFDEAVN” showed a protease stability score of 0.477.
“DDEVNHNFEEMLKARESGDPDRLKELFRDDVRMQVGDKQVTGREKLAEHLVENMKHSQRTIRITDIKAHNGRLEVRLKFTEEHNGRPKTAEADVKAVVHNGKFVSMHVDQKR” showed a protease stability score of -0.523.
For “DEDANNTAKEMLENIDEGNEKRWSELMDENATFNVGDKTYHGRENAEHLFRERKDEMRIEIDLHKVEVSGDHVVLDITVVKEHNGKPRRVDVQVEFRIHNGRMQEFVQDEHG”, the protease stability score was 0.245.
With “DEHELRRQADDFWHAVRTGDEKRIVELLDPNAHAVVGDKRYHGEKQIRQLVRSMREQVDTFRVSSITVSGDDIEIDIVLNVNGREFRATIVLRQHNGKVTELKLHPNINRALES” the protease stability score was 1.28.
“DEEHITNVVKKMVNALRTGDPDTARELADPNVTAEYGDKEIRGREEVSKMVKLLHKQADHVTVKDVKVTNGHMEVRRRQHVNGKEIQMTLEARVHNGKIQEMRVHKK” gave a protease stability score of -0.305.
Work on “DEEELTTLAEQLMDIIEQGDKKRFHQLADPNARMDVGDKRYHGREEMAKNLYDLVERVDTISVDSLSARNGRIKIDMRFKVNGQDVKQILVVRADNGTITRVSIETS” yielded a protease stability score of 0.849.
“DEDAIRVANEILKAIKEGDPHQIEEQFDKHARATYGDKTIEGSKNIMNFQKQMMDRASIKIDSVRLKNQGDHANLDYRAKVTHNGTPNDRRFTADVTVRNGKMRVFDVESRP” gave a protease stability score of -0.365.
With “DEDDQLRKLLEEIVDALDRGNESELRNLMDKDVRVDVGDKTITGRENAAEFLIRLANEADEIDINITDLKVDNGNISLRFQLHLHHNGRNVTRQVTIVIDRKGDELKVKYIRMS” the protease stability score was 0.031.
“DEDALDLLEKAARAYQTGDPDQLMRNLDEDAKVDVGDKKIRGRNDARRHLQELKDKIELHLHVTEMSVQGNKVHAHFKLHSDQNGKPYHTDVEMRADVHNGRVKRMEIRTTK” showed a protease stability score of -0.159.
In the case of “DESAIHDVTNLLHNIQTGNPDEVDKHMDKHVKLNVGDKQISGRHRVRKKVEREKKEIRIHITVYHMRSRPGRVKIDATRENEHNGTPHSHRVIVDVRYDNGKIVNFRVEDVK”, the protease stability score is reported as 0.366.
“DEDRYERLVKKAFEMIVKGNEEEVRKLLKPDVDYEYADHKFRGEEAAQFIVRLVQKVGAQAEVRRHKVEGNTATADFVYHDGDQTVQTRAEVTYEGDKLKQARVENTEEVKKLDHKG” gave a protease stability score of 0.003.
With “DERRLEQQQREYLKVLNTGNPDEMNELFDENASWQVGDKRYTGREEIERKLRELHNRVDQVRLDSYEVEPGRIKIDFQLDVNGVKVRITIILHYHNGRLQEVKMDVTDPEQWKHMQK” the protease stability score was -0.011.
